The experiment deals with MRG15 MRG domain, amino acids 155-323 (UniProt Q9UBU8-2 155-323). Briefly: FP.
Chain of MRG15 MRG domain, amino acids 155-323 (Q9UBU8 194-362): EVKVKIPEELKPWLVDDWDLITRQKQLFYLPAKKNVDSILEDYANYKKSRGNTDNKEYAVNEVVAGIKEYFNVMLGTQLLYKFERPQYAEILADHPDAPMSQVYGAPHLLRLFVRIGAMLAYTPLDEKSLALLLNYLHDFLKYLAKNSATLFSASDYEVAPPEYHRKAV

The Ki is the dissociation constant of the complex between target and ligand, obtained from inhibition or displacement. A lower Ki goes with a stronger hold on the target. MLSLKQLLSFLSITDFQLPDEDFGPLKLEKVKSC [6xHis-PALB2^597-630] returned an inhibition constant (Ki) of 9.8 nM. In other words, the single-digit nanomolar range.

The values are drawn from article PMC8701324 (2021).
